Data reported in US20140341881A1.

T1: human kallikrein 14 (hK14) (human) (UniProt Q9P0G3)
T1 sequence (looked up): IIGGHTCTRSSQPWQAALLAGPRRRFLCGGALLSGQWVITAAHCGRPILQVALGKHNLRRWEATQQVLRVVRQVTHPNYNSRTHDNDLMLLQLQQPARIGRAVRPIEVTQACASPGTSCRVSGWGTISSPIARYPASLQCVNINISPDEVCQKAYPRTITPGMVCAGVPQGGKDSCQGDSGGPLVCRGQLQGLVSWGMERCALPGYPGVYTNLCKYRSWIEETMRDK


Target: T1, human kallikrein 14 (hK14) (human)
Test: cell-based or functional assay
Also: test concentration or dose not given here.

% Inhibition	Percentage inhibition	Binder
17%	17%	rACTWT (recombinant wild type alpha-1-antichymotrypsin) (protein, human) HHHHHHHPNSPLDEENLTQENQDRGTHVDLGLASANVDFAFSLYKQLVLKAPDKNVIFSPLSISTALAFLSLGAHNTTLTEILKGLKFNLTETSEAEIHQSFQHLLRTLNQSSDELQLSMGNAMFVKEQLSLLDRFTEDAKRLYGSEAFATDFQDSAAAKKLINDYVKNGTRGKITDLIKDLDSQTMMVLVNYIFFKAKWEMPFDPQDTHQSRFYLSKKKWVMVPMMSLHHLTIPYFRDEELSCTVVELKYTGNASALFILPDQDKMEEVEAMLLPETLKRWRDSLEFREIGELYLPKFSISRDYNLNDILLQLGIEEAFTSKADLSGITGARNLAVSQVVHKAVLDVFEEGTEASAATAVKITLLSALVETRTIVRFNRPFLMIIVPTDTQNIFFMSKVTNPKQA

Target: trypsin (human), P07477
Test: cell-based or functional assay

% Inhibition	Percentage inhibition	Binder
100%	100%	ACTE8, P01011 24-423 (protein) MRGSHHHHHHSRHPNSPLDEENLTQENQDRGTHVDLGLASANVDFAFSLYKQLVLKAPDKNVIFSPLSISTALAFLSLGAHNTTLTEILKGLKFNLTETSEAEIHQSFQHLLRTLNQSSDELQLSMGNAMFVKEQLSLLDRFTEDAKRLYGSEAFATDFQDSAAAKKLINDYVKNGTRGKITDLIKDLDSQTMMVLVNYIFFKAKWEMPFDPQDTHQSRFYLSKKKWVMVPMMSLHHLTIPYFRDEELSCTVVELKYTGNASALFILPDQDKMEEVEAMLLPETLKRWRDSLEFREIGELYLPKFSISRDYNLNDILLQLGIEEAFTSKADLSGITGARNLAVSQVVHKAVLDVFEEGTEASAATAVKILQRAILVETRTIVRFNRPFLMIIVPTDTQNIFFMSKVTNPKQA
100%		ACTC11D, P01011 24-423 (protein) MRGSHHHHHHSRHPNSPLDEENLTQENQDRGTHVDLGLASANVDFAFSLYKQLVLKAPDKNVIFSPLSISTALAFLSLGAHNTTLTEILKGLKFNLTETSEAEIHQSFQHLLRTLNQSSDELQLSMGNAMFVKEQLSLLDRFTEDAKRLYGSEAFATDFQDSAAAKKLINDYVKNGTRGKITDLIKDLDSQTMMVLVNYIFFKAKWEMPFDPQDTHQSRFYLSKKKWVMVPMMSLHHLTIPYFRDEELSCTVVELKYTGNASALFILPDQDKMEEVEAMLLPETLKRWRDSLEFREIGELYLPKFSISRDYNLNDILLQLGIEEAFTSKADLSGITGARNLAVSQVVHKAVLDVFEEGTEASAATAVKITLRQTNDETRTIVRFNRPFLMIIVPTDTQNIFFMSKVTNPKQA
	0%	ACTG9, P01011 24-423 (protein) MRGSHHHHHHSRHPNSPLDEENLTQENQDRGTHVDLGLASANVDFAFSLYKQLVLKAPDKNVIFSPLSISTALAFLSLGAHNTTLTEILKGLKFNLTETSEAEIHQSFQHLLRTLNQSSDELQLSMGNAMFVKEQLSLLDRFTEDAKRLYGSEAFATDFQDSAAAKKLINDYVKNGTRGKITDLIKDLDSQTMMVLVNYIFFKAKWEMPFDPQDTHQSRFYLSKKKWVMVPMMSLHHLTIPYFRDEELSCTVVELKYTGNASALFILPDQDKMEEVEAMLLPETLKRWRDSLEFREIGELYLPKFSISRDYNLNDILLQLGIEEAFTSKADLSGITGARNLAVSQVVHKAVLDVFEEGTEASAATAVKTVDYAALVETRTIVRFNRPFLMIIVPTDTQNIFFMSKVTNPKQA
100%		ACTC11, P01011 24-423 (protein) MRGSHHHHHHSRHPNSPLDEENLTQENQDRGTHVDLGLASANVDFAFSLYKQLVLKAPDKNVIFSPLSISTALAFLSLGAHNTTLTEILKGLKFNLTETSEAEIHQSFQHLLRTLNQSSDELQLSMGNAMFVKEQLSLLDRFTEDAKRLYGSEAFATDFQDSAAAKKLINDYVKNGTRGKITDLIKDLDSQTMMVLVNYIFFKAKWEMPFDPQDTHQSRFYLSKKKWVMVPMMSLHHLTIPYFRDEELSCTVVELKYTGNASALFILPDQDKMEEVEAMLLPETLKRWRDSLEFREIGELYLPKFSISRDYNLNDILLQLGIEEAFTSKADLSGITGARNLAVSQVVHKAVLDVFEEGTEASAATAVKITLRQTNVETRTIVRFNRPFLMIIVPTDTQNIFFMSKVTNPKQA
0%	0%	rACTWT (recombinant wild type alpha-1-antichymotrypsin), P01011 24-423 (protein, human) HHHHHHHPNSPLDEENLTQENQDRGTHVDLGLASANVDFAFSLYKQLVLKAPDKNVIFSPLSISTALAFLSLGAHNTTLTEILKGLKFNLTETSEAEIHQSFQHLLRTLNQSSDELQLSMGNAMFVKEQLSLLDRFTEDAKRLYGSEAFATDFQDSAAAKKLINDYVKNGTRGKITDLIKDLDSQTMMVLVNYIFFKAKWEMPFDPQDTHQSRFYLSKKKWVMVPMMSLHHLTIPYFRDEELSCTVVELKYTGNASALFILPDQDKMEEVEAMLLPETLKRWRDSLEFREIGELYLPKFSISRDYNLNDILLQLGIEEAFTSKADLSGITGARNLAVSQVVHKAVLDVFEEGTEASAATAVKITLLSALVETRTIVRFNRPFLMIIVPTDTQNIFFMSKVTNPKQA
100%	100%	AATE8, P01009 25-418 (protein, human) HHHHHHEDPQGDAAQKTDTSHHDQDHPTFNKITPNLAEFAFSLYRQLAHQSNSTNIFFSPVSIATAFAMLSLGTKADTHDEILEGLNFNLTEIPEAQIHEGFQELLRTLNQPDSQLQLTTGNGLFLSEGLKLVDKFLEDVKKLYHSEAFTVNFGDTEEAKKQINDYVEKGTQGKIVDLVKELDRDTVFALVNYIFFKGKWERPFEVKDTEEEDFHVDQVTTVKVPMMKRLGMFNIQHCKKLSSWVLLMKYLGNATAIFFLPDEGKLQHLENELTHDIITKFLENEDRRSASLHLPKLSITGTYDLKSVLGQLGITKVFSNGADLSGVTEEAPLKLSKAVHKAVLTIDEKGTEAAGAMFLEALQRAIPPEVKFNKPFVFLMIEQNTKSPLFMGKVVNPTQK
100%		AATG1, P01009 25-418 (protein, human) HHHHHHEDPQGDAAQKTDTSHHDQDHPTFNKITPNLAEFAFSLYRQLAHQSNSTNIFFSPVSIATAFAMLSLGTKADTHDEILEGLNFNLTEIPEAQIHEGFQELLRTLNQPDSQLQLTTGNGLFLSEGLKLVDKFLEDVKKLYHSEAFTVNFGDTEEAKKQINDYVEKGTQGKIVDLVKELDRDTVFALVNYIFFKGKWERPFEVKDTEEEDFHVDQVTTVKVPMMKRLGMFNIQHCKKLSSWVLLMKYLGNATAIFFLPDEGKLQHLENELTHDIITKFLENEDRRSASLHLPKLSITGTYDLKSVLGQLGITKVFSNGADLSGVTEEAPLKLSKAVHKAVLTIDEKGTEAAGAMFLEGSLRSIPPEVKFNKPFVFLMIEQNTKSPLFMGKVVNPTQK
100%		AATG1g, P01009 25-418 (protein, human) HHHHHHEDPQGDAAQKTDTSHHDQDHPTFNKITPNLAEFAFSLYRQLAHQSNSTNIFFSPVSIATAFAMLSLGTKADTHDEILEGLNFNLTEIPEAQIHEGFQELLRTLNQPDSQLQLTTGNGLFLSEGLKLVDKFLEDVKKLYHSEAFTVNFGDTEEAKKQINDYVEKGTQGKIVDLVKELDRDTVFALVNYIFFKGKWERPFEVKDTEEEDFHVDQVTTVKVPMMKRLGMFNIQHCKKLSSWVLLMKYLGNATAIFFLPDEGKLQHLENELTHDIITKFLENEDRRSASLHLPKLSITGTYDLKSVLGQLGITKVFSNGADLSGVTEEAPLKLSKAVHKAVLTIDEKGTEAAGAMFLEGSLRGIPPEVKFNKPFVFLMIEQNTKSPLFMGKVVNPTQK
0%	0%	AATG9, P01009 25-418 (protein, human) HHHHHHEDPQGDAAQKTDTSHHDQDHPTFNKITPNLAEFAFSLYRQLAHQSNSTNIFFSPVSIATAFAMLSLGTKADTHDEILEGLNFNLTEIPEAQIHEGFQELLRTLNQPDSQLQLTTGNGLFLSEGLKLVDKFLEDVKKLYHSEAFTVNFGDTEEAKKQINDYVEKGTQGKIVDLVKELDRDTVFALVNYIFFKGKWERPFEVKDTEEEDFHVDQVTTVKVPMMKRLGMFNIQHCKKLSSWVLLMKYLGNATAIFFLPDEGKLQHLENELTHDIITKFLENEDRRSASLHLPKLSITGTYDLKSVLGQLGITKVFSNGADLSGVTEEAPLKLSKAVHKAVLTIDEKGTEAAGAMFLETVDYAIPPEVKFNKPFVFLMIEQNTKSPLFMGKVVNPTQK
100%		AATC11, P01009 25-418 (protein, human) HHHHHHEDPQGDAAQKTDTSHHDQDHPTFNKITPNLAEFAFSLYRQLAHQSNSTNIFFSPVSIATAFAMLSLGTKADTHDEILEGLNFNLTEIPEAQIHEGFQELLRTLNQPDSQLQLTTGNGLFLSEGLKLVDKFLEDVKKLYHSEAFTVNFGDTEEAKKQINDYVEKGTQGKIVDLVKELDRDTVFALVNYIFFKGKWERPFEVKDTEEEDFHVDQVTTVKVPMMKRLGMFNIQHCKKLSSWVLLMKYLGNATAIFFLPDEGKLQHLENELTHDIITKFLENEDRRSASLHLPKLSITGTYDLKSVLGQLGITKVFSNGADLSGVTEEAPLKLSKAVHKAVLTIDEKGTEAAGAMFLEAIPRQTNPEVKFNKPFVFLMIEQNTKSPLFMGKVVNPTQK
